# Where two headings read alike, the source gives them in different places.
# B1: L-rhamnose isomerase derived from P. stutzeri (Stutzerimonas stutzeri) (protein)
# chain: MAEFRIAQDVVARENDRRASALKEDYEALGANLARRGVDIEAVTAKVEKFFVAVPSWGVGTGGTRFARFPGTGEPRGIFDKLDDCAVIQQLTRATPNVSLHIPWDKADPKELKARGDALGLGFDAMNSNTFSDAPGQAHSYKYGSLSHTDAATRAQAVEHNLECIEIGKAIGSKALTVWIGDGSNFPGQSNFTRAFERYLSAMAEIYKGLPDDWKLFSEHKMYEPAFYSTVVQDWGTNYLIAQTLGPKAQCLVDLGHHAPNTNIEMIVARLIQFGKLGGFHFNDSKYGDDDLDAGAIEPYRLFLVFNELVDAEARGVKGFHPAHMIDQSHNVTDPIESLINSANEIRRAYAQALLVDRAALSGYQEDNDALMATETLKRAYRTDVEPILAEARRRTGGAVDPVATYRASGYRARVAAERPASVAGGGGII
# How the values were obtained:
# [1] = test system: L-rhamnose isomerase produced by Pseudomonas stutzerii LL172; experiment: Effect of a chelating agent or metal ion on L-rhamnose isomerase activity; type: biochemical; conditions: for Effect of a chelating agent on activity: coexisting during the measurement of activity
# [2] = test system: L-rhamnose isomerase produced by Pseudomonas stutzerii LL172; conditions: Non-Patent Document 3, cited from earlier work; for Effect of a chelating agent on activity: coexisting during the measurement of activity
# [3] = substrate: OC[C@H]1OC(O)[C@@H](O)[C@H](O)[C@@H]1O; experiment: Km and Vmax of purified L-rhamnose isomerase for a variety of substrates; type: biochemical, Pseudomonas stutzeri; conditions: other: purified enzyme without immobilizing; pH 7.0
# Protocol: (§1) An enzyme was obtained with the same conditions as those of Example 5. The measurement of Km and Vmax was carried out using the enzyme without immobilizing.
# (§2) The cells were washed twice with 0.05 M sodium phosphate buffer (pH 7.0). The washed cells were ground with alumina powder and subjected to centrifugation to remove insoluble substances together with alumina powder, whereby a crude enzyme solution was obtained. The obtained crude enzyme solution was subjected to affinity chromatography using an Ni-NTA column to purify the enzyme, whereby a pure enzyme was obtained. After the enzyme was dialyzed against ultrapure water, lyophilization was carried out, whereby pure powder enzyme was obtained. By allowing 20 mg of the enzyme to be adsorbed on 1 g of Chitopearl resin, immobilized enzyme was prepared.
# [4] = substrate: C[C@@H]1OC(O)[C@H](O)[C@H](O)[C@H]1O; experiment: as above; type: biochemical, Pseudomonas stutzeri; conditions: other: purified enzyme without immobilizing; pH 7.0
# Protocol: as §1, §2
# [5] = substrate: OC[C@@H]1OC(O)[C@H](O)[C@H](O)[C@H]1O; experiment: as above; type: biochemical, Pseudomonas stutzeri; conditions: other: purified enzyme without immobilizing; pH 7.0
# Protocol: as §1, §2
# [6] = substrate: OC[C@H]1OC(O)[C@H](O)[C@H](O)[C@@H]1O; experiment: as above; type: biochemical, Pseudomonas stutzeri; conditions: other: purified enzyme without immobilizing; pH 7.0
# Protocol: as §1, §2
# [7] = cited from earlier work
# [8] = substrate: OC1OC[C@H](O)[C@H](O)[C@H]1O; experiment: cells, lysate or membranes named; conditions: other: purified enzyme without immobilizing; pH 7.0
# [9] = substrate: OC1OC[C@@H](O)[C@@H](O)[C@H]1O; experiment: cells, lysate or membranes named; conditions: other: purified enzyme without immobilizing; pH 7.0
# [10] = substrate: OC1OC[C@H](O)[C@@H](O)[C@H]1O; experiment: cells, lysate or membranes named; conditions: other: purified enzyme without immobilizing; pH 7.0
molecule,measurement,setting,value
[Co+2] [cobalt ion],Activity inhibited by metal ion,[1]; 1 mM,About 30%
same,Activity inhibited by metal ion,[2]; 1 mM,About 30%
O=C(O)CN(CCN(CC(=O)O)CC(=O)O)CC(=O)O [EDTA],Effect of a chelating agent on activity,[1],hardly inhibited
same,Effect of a chelating agent on activity,[2],hardly inhibited
O=C(O)CN(CCOCCOCCN(CC(=O)O)CC(=O)O)CC(=O)O [EGTA],Effect of a chelating agent on activity,[1],hardly inhibited
same,Effect of a chelating agent on activity,[2],hardly inhibited
B1,Km,[3],71 mM
same,Vmax,[3],0.01 µmol/min/mg
same,Km,[4],11.9 mM
same,Vmax,[4],238 µmol/min/mg
same,Km,[5],55.5 mM
same,Vmax,[5],139 µmol/min/mg
same,Km,[6],42 mM
same,Vmax,[6],6.76 µmol/min/mg
same,"Temperature stability, activity remaining",[7]; 10 min,≥ 90%
same,Optimal pH,[7]; Non-Patent Document 3,9.0
same,Optimal temperature,[7]; Non-Patent Document 3,60 °C
same,Optimal pH,,9.0
same,Optimal temperature,,60 °C
same,"Temperature stability, activity remaining",10 min,≥ 90%
same,Km,[8],2.35 mM
same,Vmax,[8],0.061 µmol/min/mg
same,Km,[9],38.5 mM
same,Vmax,[9],21.4 µmol/min/mg
same,Km,[10],61.7 mM
same,Vmax,[10],123 µmol/min/mg
